{
  "source": "patent US20030064916A1",
  "about": "(Scripps Research, published 2003)",
  "data": [
    {"molecular_target": "HLA-A2.1 (human, UniProt A*02:01)", "experiment": "competition on EA2 cells: test peptide (100 mM [sic]) vs M1 58-66 (1 mM [sic]); % inhibition of CTL clone 12 lysis, E:T 0.3:1", "units": {"% inhibition of A2.1-binding of M1 (58-66)": "%"}, "values": [
      {"binder": "LLPENNVLS", "note": "[hu-wt-p53 25-33]", "% inhibition of A2.1-binding of M1 (58-66)": 42},
      {"binder": "LLPENNVLSPL (also called hu-wt-p53 25-35; hu-p53.25-35)", "note": "[p53.25-35]", "% inhibition of A2.1-binding of M1 (58-66)": 65},
      {"binder": "VLSPLPSQA", "note": "[hu-wt-p53 31-39]", "% inhibition of A2.1-binding of M1 (58-66)": 38},
      {"binder": "VLSPLPSQAM", "note": "[hu-wt-p53 31-40]", "% inhibition of A2.1-binding of M1 (58-66)": 23},
      {"binder": "DLMLSPDDI", "note": "[hu-wt-p53 42-50]", "% inhibition of A2.1-binding of M1 (58-66)": 19},
      {"binder": "LMLSPDDIEQ", "note": "[hu-wt-p53 43-52]", "% inhibition of A2.1-binding of M1 (58-66)": 25},
      {"binder": "RMPEAAPPV (also called hu-wt-p53 65-73; hu-p53.65-73)", "note": "[p53.65-73]", "% inhibition of A2.1-binding of M1 (58-66)": 62},
      {"binder": "AAPPVAPA", "note": "[hu-wt-p53 69-76]", "% inhibition of A2.1-binding of M1 (58-66)": 46},
      {"binder": "AAPPVAPAPA", "note": "[hu-wt-p53 69-78]", "% inhibition of A2.1-binding of M1 (58-66)": 41},
      {"binder": "AAPPVAPAPAA", "note": "[hu-wt-p53 69-79]", "% inhibition of A2.1-binding of M1 (58-66)": 4},
      {"binder": "VAPAPAAPT", "note": "[hu-wt-p53 73-81]", "% inhibition of A2.1-binding of M1 (58-66)": 12},
      {"binder": "AAPTPAAPA", "note": "[hu-wt-p53 78-86]", "% inhibition of A2.1-binding of M1 (58-66)": 51},
      {"binder": "RLGILHSGTA", "note": "[hu-wt-p53 110-119]", "% inhibition of A2.1-binding of M1 (58-66)": 10},
      {"binder": "GTAKSVTCT", "note": "[hu-wt-p53 117-125]", "% inhibition of A2.1-binding of M1 (58-66)": 12},
      {"binder": "VTCTYSPAL", "note": "[hu-wt-p53 122-130]", "% inhibition of A2.1-binding of M1 (58-66)": 12},
      {"binder": "QLAKTCPVQ", "note": "[hu-wt-p53 136-144]", "% inhibition of A2.1-binding of M1 (58-66)": 15},
      {"binder": "WVDSTPPPGT", "note": "[hu-wt-p53 146-155]", "% inhibition of A2.1-binding of M1 (58-66)": 10},
      {"binder": "STPPPGTRV", "note": "[p53.149-157]", "% inhibition of A2.1-binding of M1 (58-66)": 29},
      {"binder": "AIYKQSQHM", "note": "[hu-wt-p53 161-169]", "% inhibition of A2.1-binding of M1 (58-66)": 12},
      {"binder": "GLAPPQHLI", "note": "[hu-wt-p53 187-195]", "% inhibition of A2.1-binding of M1 (58-66)": 62},
      {"binder": "NTFRHSVVV", "note": "[hu-wt-p53 210-218]", "% inhibition of A2.1-binding of M1 (58-66)": 43},
      {"binder": "ITLEDSSGNL", "note": "[hu-wt-p53 255-264]", "% inhibition of A2.1-binding of M1 (58-66)": 24},
      {"binder": "NLLGRNSFEV", "note": "[hu-wt-p53 263-272]", "% inhibition of A2.1-binding of M1 (58-66)": 50},
      {"binder": "PLDGEYFTL (also called hu-p53.322-330)", "note": "[hu-wt-p53 322-330]", "% inhibition of A2.1-binding of M1 (58-66)": 24},
      {"binder": "EMFRELNEA", "note": "[hu-wt-p53 339-247]", "% inhibition of A2.1-binding of M1 (58-66)": 12},
      {"binder": "LLGRDSFEV (also called mur-p53.261-269)", "note": "[mur-wt-p53 261-269]", "% inhibition of A2.1-binding of M1 (58-66)": 75}
    ]}
  ]
}
